Experimental data reported in publication PMC2806950.

How the values were obtained:
[1] = target: M.EcoKI, DNA methyltransferase component (M2S1) of the EcoKI type I R/M system (E. coli K12) (UniProt P08957); assay: fluorescence polarisation; competition with DNA: M.EcoKI titrated into 50 nM Ocr and 2 nM of a 21-bp DNA duplex fluorescently labelled at the 5' end; anisotropy of the DNA monitored
[2] = target: M.EcoKI, DNA methyltransferase component (M2S1) of the EcoKI type I R/M system (E. coli K12) (UniProt P08957); assay: ITC; Ocr (typically 40 uM) titrated into M.EcoKI (4 uM); 20 mM Tris-HCl pH 8.0, 6 mM MgCl2, 7 mM 2-mercaptoethanol, 100 uM SAM, with or without 500 mM NaCl; 10 to 30 °C
[3] = target: T1, M.EcoKI methyltransferase (M2S1 core of the EcoKI type I restriction/modification enzyme) (UniProt P05719+P08957); assay: ITC; conditions: pH 8.0, 25 °C, no NaCl, 6 mM MgCl2
[4] = target: T1, M.EcoKI methyltransferase (M2S1 core of the EcoKI type I restriction/modification enzyme); assay: ITC in two buffers of different ionisation enthalpy (comparison of C1 and C2); conditions: pH 8.0; 25 °C; no NaCl; 6 mM MgCl2; 20 mM Tris-HCl pH 8.0 (47.4 kJ/mol) versus 20 mM Hepes (20.5 kJ/mol)
[5] = test system: M.EcoKI (M2S1 methyltransferase core of EcoKI); assay: fluorescence anisotropy; design: unit not given here; conditions: Anisotropy: M.EcoKI titrated into 2 nM labelled duplex (with 50 nM Ocr in the competition series); buffer and temperature not given (ref. 12). ITC buffer …

Substance	Kd [1]	also measured
Ocr chemically modified with EDC/HOBt and dimethylamine for 180 min (D-series) (from UniProt P03775 1-117) (natural protein)	26.6 nM	–
Ocr chemically modified with EDC/HOBt and dimethylamine for 120 min (D-series) (from UniProt P03775 1-117) (natural protein)	23.1 nM	–
Ocr chemically modified with EDC/HOBt and ammonium hydroxide for 120 min (N-series) (from UniProt P03775 1-117) (natural protein)	3.77 nM	–
Ocr chemically modified with EDC/HOBt and ammonium hydroxide for 15 min (N-series) (from UniProt P03775 1-117) (natural protein)	0.56 nM	–
Ocr chemically modified with EDC/HOBt and dimethylamine for 15 min (D-series) (from UniProt P03775 1-117) (natural protein)	2.64 nM	stoichiometry N (Ocr dimer per molecule of M.EcoKI) [2]: 1
Ocr chemically modified with EDC/HOBt and dimethylamine for 60 min (D-series) (from UniProt P03775 1-117) (natural protein)	19.7 nM	–
Ocr chemically modified with EDC/HOBt and ammonium hydroxide for 30 min (N-series) (from UniProt P03775 1-117) (natural protein)	1.82 nM	–
Ocr chemically modified with EDC/HOBt and ammonium hydroxide for 60 min (N-series) (from UniProt P03775 1-117) (natural protein)	1.9 nM	stoichiometry N (Ocr dimer per molecule of M.EcoKI) [2]: 1
Ocr (overcome classical restriction; gene 0.3 protein), unmodified wild type	–	ΔH ([3]; 20 mM Hepes in place of Tris-HCl (heat of ionization = 20.5 kJ/mol as printed), pH not restated, taken as 8.0): − 90.0 kJ/mol; ΔH ([3]; 20 mM Tris-HCl, pH 8.0 (heat of ionization = 47.4 kJ/mol as printed)): − 86.2 kJ/mol; net protonation change on binding (no number given) [4]: 0 protons
21-bp DNA duplex	–	Kd [5]: 2.1
Ocr chemically modified with EDC/HOBt and ammonium hydroxide for 180 min (N-series) (from UniProt P03775 1-117) (natural protein)	12.6 nM	–
Ocr chemically modified with EDC/HOBt and dimethylamine for 30 min (D-series) (from UniProt P03775 1-117) (natural protein)	5.8 nM	–
